± gives the uncertainty stated by the source.
Assay: self-splicing fitness, log relative to wild type (ln ratio); higher = more splicing; Tetrahymena group I intron in knt gene, E. coli kanamycin selection, DiMSum; sequences stand for … in CUCUCU…GGAGGGAAAAGUUAUCAGGCAUGCACCUGGUAGCUAGUCUUUAAACCAAUAGAUUGCAUCGGUUUAAAAGGCAAGACCGUCAAAUUGCGGGAAAGGGGUCAACAGCCGUUCAGUACCAAGUCUCAGGGGAAACUUUGAGAUGGCCUUGCAAAGGGUAUGGUAAUAAGCUGACGGACAUGGUCCUAACCACGCAGCCAAGUCCUAAGUCAACAGAUCUUCUGUUGAUAUGGAUGCAGUUCACAGACUAAAUGUCGGUCGGGGAAGAUGUAUUCUUCUCAUAAGAUAUAGUCGGACCUCUCCUUAAUGGGAGCUAGCGGAUGAAGUGAUGCAACACUGGAGCCGCUGGGAACUAAUUUGUAUGCGAAAGUAUAUUGAUUAGUUUUGGAGUACUCGUGGUCG
Procedure, shortened: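 Six replicate transformations of E. coli BL21(DE3) with a pET-22b(+) library were grown overnight at 37°C or 30°C. The library randomised all eight P1ex-region intron nucleotides, the intron lying in the knt kanamycin-resistance gene, and plates were LB agar with or without 25 μg/mL kanamycin plus 100 μg/mL carbenicillin, 50 μM IPTG and 0.2% rhamnose. Pooled colonies were amplicon-sequenced on an Illumina HiSeq 2500, and fitness is the DiMSum error-weighted combination of wild-type-normalised replicate fold changes, kanamycin versus none.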

## UCGCAGCAAUAUUACGGCCG
30 °C
  self-splicing fitness (ln): -0.546 ± 0.12
37 °C
  self-splicing fitness (ln): -0.522 ± 0.18

## GAUUAGCAAUAUUACGGCGG
30 °C
  self-splicing fitness (ln): -0.96 ± 0.16
37 °C
  self-splicing fitness (ln): -2.17 ± 0.25

## UCGGAGCAAUAUUACGUCCC
30 °C
  self-splicing fitness (ln): -1.39 ± 0.46

## UCCGAGCAAUAUUACGGAGC
30 °C
  self-splicing fitness (ln): -3.17 ± 0.25
37 °C
  self-splicing fitness (ln): -2.67 ± 0.26

## UGUUAGCAAUAUUACGCGGU
30 °C
  self-splicing fitness (ln): -4.19 ± 0.47

## UGGAAGCAAUAUUACGACAU
30 °C
  self-splicing fitness (ln): -2.825 ± 0.021
37 °C
  self-splicing fitness (ln): -1.92 ± 0.035

## CAAGAGCAAUAUUACGUACU
30 °C
  self-splicing fitness (ln): -3.74 ± 0.21
37 °C
  self-splicing fitness (ln): -1.92 ± 0.2

## CCCGAGCAAUAUUACGUAAC
30 °C
  self-splicing fitness (ln): -3.43 ± 0.23
37 °C
  self-splicing fitness (ln): -3.05 ± 0.28

## GAUCAGCAAUAUUACGUGUA
30 °C
  self-splicing fitness (ln): -1.36 ± 0.069
37 °C
  self-splicing fitness (ln): -0.723 ± 0.082

## GUGUAGCAAUAUUACGCAUA
30 °C
  self-splicing fitness (ln): -2.5 ± 0.21
37 °C
  self-splicing fitness (ln): -1.31 ± 0.19

## GAACAGCAAUAUUACGACUU
30 °C
  self-splicing fitness (ln): -0.206 ± 0.072
37 °C
  self-splicing fitness (ln): 0.314 ± 0.088

## AGUUAGCAAUAUUACGCAUG
30 °C
  self-splicing fitness (ln): -1.91 ± 0.078
37 °C
  self-splicing fitness (ln): -1.15 ± 0.1

## UCUGAGCAAUAUUACGGUGC
30 °C
  self-splicing fitness (ln): -4.39 ± 0.39
37 °C
  self-splicing fitness (ln): -2.45 ± 0.25

## CGGGAGCAAUAUUACGUGGG
30 °C
  self-splicing fitness (ln): -2.97 ± 0.35

## CUCGAGCAAUAUUACGGACA
30 °C
  self-splicing fitness (ln): -2.98 ± 0.33
37 °C
  self-splicing fitness (ln): -1.35 ± 0.29

## GAGAAGCAAUAUUACGUCUG
30 °C
  self-splicing fitness (ln): -0.739 ± 0.13
37 °C
  self-splicing fitness (ln): 0.277 ± 0.15

## ACAAAGCAAUAUUACGGCGG
30 °C
  self-splicing fitness (ln): -0.226 ± 0.08
37 °C
  self-splicing fitness (ln): -0.154 ± 0.092

## AGAUAGCAAUAUUACGUGGC
30 °C
  self-splicing fitness (ln): -3.18 ± 0.23
37 °C
  self-splicing fitness (ln): -2.86 ± 0.32

## GACGAGCAAUAUUACGCGAU
30 °C
  self-splicing fitness (ln): -2.42 ± 0.26
37 °C
  self-splicing fitness (ln): -2.36 ± 0.45

## UUACAGCAAUAUUACGGGAC
30 °C
  self-splicing fitness (ln): -4.47 ± 0.33
37 °C
  self-splicing fitness (ln): -2.07 ± 0.25

## GGAAAGCAAUAUUACGACAC
30 °C
  self-splicing fitness (ln): -0.204 ± 0.15
37 °C
  self-splicing fitness (ln): -0.206 ± 0.2

## UAUGAGCAAUAUUACGUUGG
30 °C
  self-splicing fitness (ln): -4.07 ± 0.3
37 °C
  self-splicing fitness (ln): -2.24 ± 0.22

## UAGGAGCAAUAUUACGACUA
30 °C
  self-splicing fitness (ln): -0.46 ± 0.13
37 °C
  self-splicing fitness (ln): -1.53 ± 0.15

## UGCUAGCAAUAUUACGGUCC
30 °C
  self-splicing fitness (ln): -2.01 ± 0.19
37 °C
  self-splicing fitness (ln): 0.11 ± 0.21

## CGAAAGCAAUAUUACGAUUA
30 °C
  self-splicing fitness (ln): -1.48 ± 0.11
37 °C
  self-splicing fitness (ln): -1.06 ± 0.13

## UAUCAGCAAUAUUACGGUGC
30 °C
  self-splicing fitness (ln): -3.27 ± 0.19
37 °C
  self-splicing fitness (ln): -1.14 ± 0.14

## ACAGAGCAAUAUUACGGAAG
30 °C
  self-splicing fitness (ln): -3.52 ± 0.22
37 °C
  self-splicing fitness (ln): -2.12 ± 0.22

## UCUAAGCAAUAUUACGGAAU
30 °C
  self-splicing fitness (ln): -4.16 ± 0.46
37 °C
  self-splicing fitness (ln): -1.64 ± 0.33

## AGACAGCAAUAUUACGACUG
30 °C
  self-splicing fitness (ln): -1.14 ± 0.078
37 °C
  self-splicing fitness (ln): -0.387 ± 0.084

## GUGUAGCAAUAUUACGACAA
30 °C
  self-splicing fitness (ln): -0.665 ± 0.14
37 °C
  self-splicing fitness (ln): -0.365 ± 0.21

## UGGGAGCAAUAUUACGUCUU
30 °C
  self-splicing fitness (ln): -3.74 ± 0.35
37 °C
  self-splicing fitness (ln): -2.54 ± 0.3

## CUAGAGCAAUAUUACGACGA
30 °C
  self-splicing fitness (ln): -3.35 ± 0.13
37 °C
  self-splicing fitness (ln): -1.36 ± 0.13

## AGACAGCAAUAUUACGCGGG
30 °C
  self-splicing fitness (ln): -3.46 ± 0.2
37 °C
  self-splicing fitness (ln): -2.62 ± 0.18

## UCUAAGCAAUAUUACGACCU
30 °C
  self-splicing fitness (ln): -3.7 ± 0.35
37 °C
  self-splicing fitness (ln): -1.92 ± 0.24

## GGGAAGCAAUAUUACGUUUA
30 °C
  self-splicing fitness (ln): -2.23 ± 0.22
37 °C
  self-splicing fitness (ln): -1.51 ± 0.16

## AGACAGCAAUAUUACGAGGG
30 °C
  self-splicing fitness (ln): -4.15 ± 0.16
37 °C
  self-splicing fitness (ln): -2.61 ± 0.21

## GGUCAGCAAUAUUACGCAUG
30 °C
  self-splicing fitness (ln): -1.15 ± 0.1
37 °C
  self-splicing fitness (ln): -0.079 ± 0.12

## CGUCAGCAAUAUUACGGCCC
30 °C
  self-splicing fitness (ln): -1.75 ± 0.17
37 °C
  self-splicing fitness (ln): -0.728 ± 0.24

## CGGUAGCAAUAUUACGCGCG
30 °C
  self-splicing fitness (ln): -2.49 ± 0.31
37 °C
  self-splicing fitness (ln): -1.87 ± 0.22

## GAGGAGCAAUAUUACGAGGC
30 °C
  self-splicing fitness (ln): -3.47 ± 0.47

## UUAGAGCAAUAUUACGCACG
30 °C
  self-splicing fitness (ln): -0.444 ± 0.17
37 °C
  self-splicing fitness (ln): -0.183 ± 0.18

## GACAAGCAAUAUUACGCGCA
30 °C
  self-splicing fitness (ln): -0.282 ± 0.099
37 °C
  self-splicing fitness (ln): -0.0559 ± 0.1

## ACCCAGCAAUAUUACGCCAU
30 °C
  self-splicing fitness (ln): -4.24 ± 0.23
37 °C
  self-splicing fitness (ln): -1.88 ± 0.16

## CAACAGCAAUAUUACGACUC
30 °C
  self-splicing fitness (ln): -1.74 ± 0.11
37 °C
  self-splicing fitness (ln): -0.579 ± 0.12

## CCUCAGCAAUAUUACGCGGU
30 °C
  self-splicing fitness (ln): -3.37 ± 0.19
37 °C
  self-splicing fitness (ln): -2.98 ± 0.33

## GAUCAGCAAUAUUACGGGUC
30 °C
  self-splicing fitness (ln): -3.38 ± 0.21
37 °C
  self-splicing fitness (ln): -3.05 ± 0.25

## GUAUAGCAAUAUUACGCAGG
30 °C
  self-splicing fitness (ln): -3.15 ± 0.45
37 °C
  self-splicing fitness (ln): -3.36 ± 0.47

## GGUGAGCAAUAUUACGUCGC
30 °C
  self-splicing fitness (ln): -3.57 ± 0.49

## CGUUAGCAAUAUUACGCAGC
30 °C
  self-splicing fitness (ln): -2.48 ± 0.25
37 °C
  self-splicing fitness (ln): -3.07 ± 0.43
